B1: PPAP2C-001 (peptide)
peptide: AYLVYTDRL
B2: MUC6-001 (peptide)
peptide: NYEETFPHI
B3: MET-006 (peptide)
peptide: SYIDVLPEF
B4: SMC4-001 (peptide)
peptide: HYKPTPLYF
B5: MST1R-001 (peptide)
peptide: NYLLYVSNF
B6: NFYB-001 (peptide)
peptide: VYTTSYQQI
B7: SIAH2-001 (peptide)
peptide: VFDTAIAHLF
B8: AVL9-001 (peptide)
peptide: FYISPVNKL
B9: ABL1-001 (peptide)
peptide: TYGNLLDYL
B10: ASPM-001 (peptide)
peptide: RYLWATVTI
B11: MMP3-001 (peptide)
peptide: VFIFKGNQF
B12: ERBB3-001 (peptide)
peptide: VYIEKNDKL
B13: ATAD2-001 (peptide)
peptide: AYAIIKEEL
B14: IQGAP3-001 (peptide)
peptide: VYKVVGNLL
B15: PLK4-001 (peptide)
peptide: QYASRFVQL
B16: UQCRB-001 (peptide)
peptide: YYNAAGFNKL
B17: ASPM-002 (peptide)
peptide: SYNPLWLRI
B18: NUF2-001 (peptide)
peptide: VYGIRLEHF
B19: UCHL5-001 (peptide)
peptide: NYLPFIMEL
B20: CDC2-001 (peptide)
peptide: LYQILQGIVF
notes: also called TUMAP encoded by CDK1
B21: KIF2C-001 (peptide)
peptide: IYNGKLFDLL
B22: NUF2-002 (peptide)
peptide: RFLSGIINF
B23: HSP90B1-001 (peptide)
peptide: KYNDTFWKEF

Each binder was assayed against T1, recombinant HLA-A*2402 molecules lacking the transmembrane domain (human, biotinylated at the carboxy terminus of the heavy chain) (assay: peptide-loaded recombinant HLA-A*2402 on beads for T-cell priming, read out with A*2402 multimers).
T1 construct: Loaded with the peptide in question; used on streptavidin beads (aAPC) and as PE- or APC-coupled multimers
B1: binds.
B2: binds.
B3: binds.
B4: binds.
B5: binds.
B6: binds.
B7: binds.
B8: binds.
B9: binds.
B10: binds.
B11: binds.
B12: binds.
B13: binds.
B14: binds.
B15: binds.
B16: binds.
B17: binds.
B18: binds.
B19: binds.
B20: binds.
B21: binds.
B22: binds.
B23: binds.

— patent US20110257890A1 (IMMATICS BIOTECHNOLOGIES, published 2011)
